Results reported in patent publication US20170342169A1.

Legend:
mouse 4-1BB (mouse) = mouse 4-1BB (mouse) (UniProt P20334); test: SPR
[1] = target: human mesothelin on cells (SN12C, OVCAR3, SW1990 endogenous; HEK293 transfectants) (human) (UniProt Q13421); test: FACS, OVCAR3 cells (CA125+)
[2] = target: human mesothelin on cells (SN12C, OVCAR3, SW1990 endogenous; HEK293 transfectants) (human) (UniProt Q13421); test: FACS, SN12C cells (CA125-)

Sequence of mouse 4-1BB (mouse) (P20334 24-187): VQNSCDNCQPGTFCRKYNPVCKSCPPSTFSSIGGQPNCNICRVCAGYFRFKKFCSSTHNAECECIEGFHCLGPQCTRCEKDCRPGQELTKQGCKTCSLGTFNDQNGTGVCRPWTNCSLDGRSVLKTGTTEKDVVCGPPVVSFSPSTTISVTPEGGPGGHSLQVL
Sequence of human mesothelin on cells (SN12C, OVCAR3, SW1990 endogenous; HEK293 transfectants) (human) (Q13421 other isoform, or with tags, fused parts or gaps limits assumed): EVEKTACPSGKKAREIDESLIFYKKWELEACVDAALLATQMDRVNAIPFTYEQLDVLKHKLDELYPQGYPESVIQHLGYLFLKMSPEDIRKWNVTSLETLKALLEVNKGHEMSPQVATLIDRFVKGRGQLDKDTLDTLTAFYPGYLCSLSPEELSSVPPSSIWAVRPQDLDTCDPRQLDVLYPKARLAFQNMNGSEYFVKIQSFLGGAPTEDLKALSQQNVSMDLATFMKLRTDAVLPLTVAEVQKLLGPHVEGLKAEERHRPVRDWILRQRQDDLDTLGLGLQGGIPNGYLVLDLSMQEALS

| Substance | Kd (mouse 4-1BB (mouse)) [nM] | koff (mouse 4-1BB (mouse)) [s⁻¹] | kon (mouse 4-1BB (mouse)) [M⁻¹ s⁻¹] | Maximum binding (MFI) [1] [MFI] | Maximum binding (MFI) [2] [MFI] |
| --- | --- | --- | --- | --- | --- |
| 1D8 (antibody) | 3.9 | 0.008 | 2.1e+06 | – | – |
| HuIgG1 control (antibody) | – | – | – | 70 | 40 |
